Experimental data reported in the supplement of paper PMC10126150.
± gives the standard deviation of the averaged measurements.

System: ATP
Test: switch fluorescence ratio, 500 uM ATP over buffer (Cy3 cluster intensity, sum of 5 cycles each) (fold (ratio)); higher = stronger signal-on switching upon ATP binding; sequences stand for … in TCGTCGGCAGCGTCAGATGTGTATAAGAGACAGTTTTTTTTTTTTTTTTTTTTTTTTT…TC
Settings: aptamer strand: ATP DNA aptamer (quencher-CACCTGGGGGAGTATTGCGGAGGAAGG + anchor), 100 nM annealed; ATP concentration: 500 uM
How it was run: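 Values give the fluorescence ratio for each switch-domain sequence, averaged from per-cluster ratios of summed target-cycle to summed buffer-cycle Cy3 intensity. The Cy3-labelled switching-strand clusters sat on a modified Illumina MiSeq flow-cell, were annealed to 100 nM quencher-labelled ATP aptamer, and were imaged in selection buffer, then after 15 min with 500 uM ATP at 22 °C. Five cycles ran with NaOH stripping and re-annealing between them, and clusters outside 100-1000 RFU were excluded.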
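Further: ATP exposure 15 min at 22 °C before imaging.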

Point of comparison: GAGGCGCAGT, switch fluorescence ratio 0.9988 ± 0.0024. Against it:
- ATCAGCGCGG — higher, 1.013 ± 0.0027
- GTTGGGTGTG — within error, 1.02 ± 0.019
- GCGGAGCGTA — within error, 1.06 ± 0.13
- GGACGTTGGT — within error, 1.02 ± 0.022
- TTTTGCTTGT — within error, 0.996 ± 0.015
- CCAGATTTGT — within error, 1.01 ± 0.016
- TTTTACCCGT — within error, 1.01 ± 0.013
- GGGAAAAGGA — higher, 1.018 ± 0.0094
- TGGGCGCCGG — within error, 1 ± 0.013
- AGATGAGAGA — within error, 1 ± 0.016
- CTCGACGGGG — within error, 0.975 ± 0.035
- TAAAGAACAT — within error, 0.997 ± 0.057
- CTGTAATAAG — higher, 1.09 ± 0.075
- GGGGAGTCGA — within error, 1.03 ± 0.068
- ATAGACAGCA — within error, 1.01 ± 0.025
- TCAGGGGGAC — within error, 1.78 ± 1.3
- TATAAATTAG — within error, 0.972 ± 0.026
- CGGTTAGAGG — lower, 0.989 ± 0.0013
- CGTACTGTGG — within error, 0.9977 ± 0.0099
- CTCGGGGTGT — higher, 1.02 ± 0.018
- GGTAACGAGG — within error, 0.963 ± 0.039
- AGAGTGTGGG — within error, 1.02 ± 0.033
- TGGTCAGCTA — within error, 1.02 ± 0.025
- CGATAGGTTT — within error, 1 ± 0.019
- GGTTAGATGT — lower, 0.9766 ± 0.0075
- GAATAGGTTA — within error, 0.983 ± 0.026
- AGTGTTTAAA — lower, 0.969 ± 0.025
- TCATTTTCGG — within error, 0.986 ± 0.025
- ATGGAGTAAC — within error, 0.987 ± 0.011
- TACAGGGAAC — lower, 0.974 ± 0.014
- CGGAGGAGGA — within error, 0.993 ± 0.038
- GCGTGAGGCG — within error, 1.01 ± 0.02
- AAAAAGGTTA — within error, 0.998 ± 0.025
- TTATCTAGGA — within error, 1 ± 0.028
- TGGGGTTCAC — within error, 0.998 ± 0.018
- GCGATCAGGT — higher, 1.02 ± 0.017
- TAGTTTTTAT — higher, 1.02 ± 0.014
- TTGAAATAG — within error, 0.9957 ± 0.0097
- GTTGGGGGAT — within error, 0.986 ± 0.038
- TAGGGGGTGG — within error, 1 ± 0.03
- ATTTTTCTTA — higher, 1.007 ± 0.0045
- TACGAAAAGA — within error, 1.04 ± 0.052
- ACTGTGTGTT — within error, 1.01 ± 0.025
- ACGAGTTAGT — within error, 0.9933 ± 0.0045
- TTTAAAATAG — within error, 1.01 ± 0.019
- ATTTTGAATC — lower, 0.973 ± 0.013
- TGTGGCGTAT — higher, 1.011 ± 0.0014
- GGCGTCTTCC — within error, 1.01 ± 0.037
- CTGGCATGGT — within error, 1 ± 0.011
- CGTTTATGTA — within error, 0.995 ± 0.04
- ATTGGCTGGA — within error, 0.96 ± 0.076
- TTTGATCTGC — lower, 0.961 ± 0.031
- GTGTGAGGTT — within error, 0.989 ± 0.019
- TAGGTGGCTC — within error, 1.03 ± 0.069
- CTCACCATGA — within error, 1.03 ± 0.035
- GAAGATTGGT — within error, 0.981 ± 0.028
- TAATTCAGGT — within error, 1 ± 0.011
- GCTTTAATTT — higher, 1.07 ± 0.045
- TAGCCCGTGG — within error, 1.02 ± 0.027
- AAATGTGTCT — within error, 1.01 ± 0.04
- GGTGTGAGTA — within error, 1.01 ± 0.016
- AGGGGGCCTG — within error, 0.992 ± 0.01
- GAGTTTTTGG — lower, 0.973 ± 0.015
- TTTAATTTTG — within error, 1 ± 0.036
- TTTATATAGA — within error, 0.996 ± 0.033
- CTCCTCTACC — higher, 1.64 ± 0.048
- TTACACGGGG — within error, 0.969 ± 0.036
- TTTATTAATG — within error, 1.01 ± 0.026
- ATTATGCTAT — higher, 1.052 ± 0.0094
- GACGTTAATA — higher, 1.41 ± 0.04
- AGAATGTACG — higher, 1.015 ± 0.0078
- GATTGCGGTC — higher, 1.03 ± 0.016
- TAAGTAAATA — lower, 0.9762 ± 0.004
- TGCCGAAAGC — higher, 1.018 ± 0.0087
- TTTGGATTTC — within error, 1 ± 0.013
- GGTTGGTTTT — within error, 0.992 ± 0.024
- GAAGGGGTCA — within error, 0.9904 ± 0.0089
- TCTTAAAGGT — within error, 0.986 ± 0.026
- AAACTCAACG — higher, 1.08 ± 0.031
- CAGCTTCCCC — within error, 1.29 ± 0.42
- ATGAGGGGCT — within error, 0.986 ± 0.037
- CAGTAGTTAT — within error, 0.996 ± 0.011
- TATGGGGTTG — within error, 1.03 ± 0.12
- GGACTAGCTT — within error, 1.03 ± 0.032
- TTTCTAGTCT — lower, 0.935 ± 0.0085
- GTCTAATAGT — higher, 1.03 ± 0.015
- GATGTGTAGA — the same, 0.999 ± 0.018
- TTGTATATTT — within error, 0.982 ± 0.02
- TGAAGGCGGG — within error, 1 ± 0.039
- GGTGTGTCTC — within error, 1.03 ± 0.065
- CAGACCTCGT — within error, 1 ± 0.013
- ATGTGGGGAG — lower, 0.9941 ± 0.002
- TTGGTTACGT — within error, 1 ± 0.039
- AGTATAGGGA — within error, 1.011 ± 0.01
- GTTGGATAAT — within error, 1 ± 0.033
- TTCTCATTTT — within error, 1.01 ± 0.029
- CTAAATATAT — higher, 1.03 ± 0.013
- ATGGATGGGC — within error, 1.04 ± 0.057
- TAGCTAATTT — within error, 0.979 ± 0.027
- ACGCGATATG — higher, 1.253 ± 0.01
- GTTGTACGAA — within error, 1.19 ± 0.28
- TGGGATTTGT — lower, 0.9881 ± 0.0029
- CAGATTCGAG — within error, 1.008 ± 0.01
- AGGGGTCTCA — lower, 0.9852 ± 0.0035
- AACGTATGTG — lower, 0.937 ± 0.025
- TGATTGGAGG — within error, 0.994 ± 0.038
- GGAGGAGAGG — within error, 1.01 ± 0.04
- ATGAGTGCCA — lower, 0.9844 ± 0.0013
- TGTAGAGCCA — within error, 1.03 ± 0.035
- ATGTCACTTG — higher, 1.02 ± 0.018
- GACGTATTTT — the same, 0.9993 ± 0.0013
- TGGAGAAGTA — within error, 1.09 ± 0.2
- GGGGGTACCG — within error, 0.977 ± 0.021
- CTGACAGATT — within error, 1.11 ± 0.12
- GATTGGGGCT — within error, 1.02 ± 0.039
- GCCAGGGGAG — within error, 1.1 ± 0.12
- CAATGGGGTT — within error, 1.02 ± 0.027
- GTAGGCGGGG — within error, 0.99 ± 0.018
- ACCAGGCAGC — higher, 1.12 ± 0.024
- CACGTTTGTT — higher, 1.027 ± 0.004
- CGGTTATTGA — within error, 1.02 ± 0.022
- GGGGTGAGCC — lower, 0.978 ± 0.017
- AGAGACGCTT — higher, 1.03 ± 0.027
- GGAGTCATGG — higher, 1.045 ± 0.0073
- GATGGTGTGG — within error, 0.997 ± 0.015
- TCGGTTGGGT — within error, 0.984 ± 0.038
- TGATCATATT — higher, 1.024 ± 0.0079
- CCGGTGTCTG — within error, 1.05 ± 0.09
- TGGCTTGCG — within error, 1.01 ± 0.04
- TTCGGCGGGT — higher, 1.03 ± 0.025
- CAGAGAGCGG — lower, 0.9815 ± 0.0031
- TCGAACTGAT — within error, 1.02 ± 0.03
- AAACGGAG — higher, 1.007 ± 0.0081
- AGGCGGGGCG — within error, 1.02 ± 0.022
- CGGTACATTG — within error, 1.004 ± 0.0053
- TCGCACGTAT — within error, 1.03 ± 0.043
- TCTATGCTTA — within error, 1.01 ± 0.038
- ATTGCGAATT — within error, 1.02 ± 0.022
- AAATTTCGTT — lower, 0.966 ± 0.016
- CCTGAGGTGT — higher, 1.47 ± 0.18
- TAAATTTTAT — higher, 1.012 ± 0.0058
- TCGACTGTTT — higher, 1.03 ± 0.018
- TAACGTATGT — within error, 0.9929 ± 0.0046
- CTATGTGATT — higher, 1.025 ± 0.0017
- TTGAACGTGT — within error, 0.994 ± 0.042
- TAGTAACTAC — higher, 1.05 ± 0.011
- GTTTGGGAGG — lower, 0.963 ± 0.01
- TCTGGACATT — within error, 1.01 ± 0.023
- TAGAGAGGCG — within error, 0.9981 ± 0.0084
- ACAGGGGAGA — higher, 1.03 ± 0.024
- ATAACGTACT — higher, 1.84 ± 0.18
- TGGAGTGGGT — within error, 1.01 ± 0.011
- GAACGACCGC — higher, 1.34 ± 0.065
- GTGGGGTTTC — within error, 0.977 ± 0.032
- CAAGATGCTC — higher, 1.43 ± 0.03
- TTTGACAGGA — higher, 1.06 ± 0.057
- TTTGTTTCGA — within error, 1.05 ± 0.11
- TAGCATAACC — higher, 1.181 ± 0.0097
- GATAATTTTT — lower, 0.9884 ± 0.0084
- TGTAAGCTAG — higher, 1.017 ± 0.0066
- TTCGGCCCGA — within error, 1.01 ± 0.039
- ACATGGGGCG — within error, 1 ± 0.054
- ATGGGCGTAC — within error, 1.03 ± 0.054
- GTACGGGGAA — higher, 1.04 ± 0.03
- TAAGGGTTGG — within error, 0.978 ± 0.03
- TTTGTTCACT — within error, 0.989 ± 0.041
- TTGAGGGCCT — within error, 0.979 ± 0.021
- ACATGTGTTT — higher, 1.03 ± 0.028
- TTTGTTGCA — higher, 1.02 ± 0.011
- CGGGGAGTGG — within error, 0.973 ± 0.032
- GCAGGAGCCT — within error, 1.01 ± 0.011
- AGACGGGAAC — within error, 1 ± 0.022
- TGGGAGTTAG — lower, 0.943 ± 0.03
- CTTATAGGTC — within error, 1.01 ± 0.017
- AAATGGTTCC — within error, 1.72 ± 1
- TATCAGTAGG — within error, 0.981 ± 0.021
- CTTGCAAACG — higher, 1.201 ± 0.0043
- CATATGTTGA — within error, 0.975 ± 0.026
- GGGTAAATAG — higher, 1.034 ± 0.007
- CTCACTTGGG — higher, 1.024 ± 0.0012
- GGCGGCCGAT — lower, 0.9707 ± 0.005
- CGGGGATGTA — within error, 0.972 ± 0.031
- AGAAATCTTG — within error, 0.983 ± 0.021
- CTGATGTCTA — within error, 0.977 ± 0.022
- AGTTTGTTCG — lower, 0.953 ± 0.022
- CAGGCTTTTA — within error, 0.983 ± 0.028
- CAGATTGGGG — within error, 1 ± 0.025
- AAAAGAATGT — within error, 0.993 ± 0.021
- ACTAGTCACG — higher, 1.072 ± 0.0093
- ACGGCACTCG — higher, 1.4 ± 0.1
- GCAAGGCGGA — higher, 1.03 ± 0.0091
- AAAATGGGGT — within error, 1.02 ± 0.052
- ACGGGAGGGG — within error, 1.04 ± 0.048
- TGGGTAAGTA — within error, 0.993 ± 0.012
- AACTAGTGGC — within error, 0.998 ± 0.049
- TATAGTGGGT — within error, 1.01 ± 0.067
- TTGGTATTAT — within error, 0.986 ± 0.02
- ATATCTATGG — within error, 0.994 ± 0.025
- GCCCAGTCCT — higher, 1.03 ± 0.02
